Test results published in the supplement of paper PMC10201428.
± gives the standard deviation of the averaged measurements.

Tests used:
[1] = test system: VchCAST RNA-guided transposition machinery (E. coli BL21(DE3) host, lacZ target); assay: relative integration efficiency (T-LR orientation) vs wild-type transposon end (log2 (normalized fold change)); transposon end mutated: left end; higher = more efficient transposition
Procedure, shortened: (§1)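 A T7-driven effector plasmid encoding a CRISPR array, tniQ-cas8-cas7-cas6 and tnsA-tnsB-tnsC was co-transformed into E. coli BL21(DE3) together with a pUC57 mini-transposon donor holding barcoded pools of 1549 left-end or 1849 right-end variants. Transformants were plated with 0.1 mM IPTG at 37°C for 18 h. Illumina sequencing of PCR-amplified input plasmids and genomic integration junctions gave barcode abundances, and relative integration efficiency is their output/input fold change, normalised to reference barcodes and log-transformed.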

[2] = test system: VchCAST RNA-guided transposition machinery (E. coli BL21(DE3) host, lacZ target); assay: relative integration efficiency (T-RL orientation) vs wild-type transposon end (log2 (normalized fold change)); transposon end mutated: left end; higher = more efficient transposition
Procedure, shortened: as §1

| Sequence | relative integration efficiency (log2) [1] | relative integration efficiency (log2) [2] |
| --- | --- | --- |
| AATGTTGTTGATGCAACCATAAAGTGATATTTAATAATTACAACCATATATTGATATCTCTTTATAATCAGCAACTTAACCACAAAAACAAAACAACCATAAGTTGATATTTTTGTGAATCGAGTATTTCAGCAAAACTACTGCAGTAAGAA | -2.04 ± 1.6 | -4.31 ± 0.99 |
| AATGTTGTTGATGCAACCATAAAGTGATATTTAATAATTAGGGCGCCGACTACCAGGCCAACACCCCACCAACGCGCGGTCGCGAGACACCCCACCAACGCCTGGTCGCGGGGGTGTCCGATCTGATTTCAGCAAAACTACTGCAGTAAGAA | -4.57 ± 0.92 | -7.07 ± 0.66 |
| AATGTTGTTGATGCAACCATAAAGTGATATTTAATAATTATCAACCATAAAGTGATATTTAACTTAACAACCATATATTGATATCTCACAAAACAACCATAAGTTGATATTTTTGTGAATCGAGTATTTCAGCAAAACTACTGCAGTAAGAA | -4.24 ± 1.2 | -3.5 ± 0.95 |
| AATGTTGTTGATGCAACCATAAAGTGATATTTAATAATTATCAACCATATATTGATATCTCTTATAATCAGCAACTTAACCACAAAAACAAAACAACCATAAGTTGATATTTTTGTGAATCGAGTATTTCAGCAAAACTACTGCAGTAAGAA | -2.13 ± 1.5 | -4.57 ± 1.7 |
| AATGTTGTTGATGCAACCATAAAGTGATATTTAATAATTATTCAACCATATATTGATATCTCACAAAACAACCATAAGTTGATATTTTTATAATCAGCAACTTAACCACAAAATGTGAATCGAGTATTTCAGCAAAACTACTGCAGTAAGAA | < -10 | -6.852 ± 0.014 |
| AATGTTGTTGATGCAACCATAAAGTGATATTTAATAATTATTCAACCATATATTGATATCTCTATAATCAGCAACTTAACCACAAAAACAAAACAACCATAAGTTGATATTTTTGTGAATCGAGTATTTCAGCAAAACTACTGCAGTAAGAA | -3.42 ± 0.56 | -5.19 ± 1.2 |
| AATGTTGTTGATGCAACCATAAAGTGATATTTAATAATTATTGCGCCGACTACCAGGCCAACACCCCACCAACGCGCGGTCGCGAGACACCCCACCAACGCCTGGTCGCGGGGGTGTCCGATCTGATTTCAGCAAAACTACTGCAGTAAGAA | -5.68 ± 3.3 | -6.73 ± 0.58 |
| AATGTTGTTGATGCAACCATAAAGTGATATTTAATAATTATTTACAACCATATATTGATATCTCACAAAACAACCATAAGTTGATATTTTTGTGAATCGAGTATTTCAGCAAAACTACTGCAGTAAGAAAGTTACTTCGTGGTATGGGAGGA | -1.76 ± 1 | -5.81 ± 1.1 |
| AATGTTGTTGATGCAACCATAAAGTGATATTTAATAATTATTTACAACCATATATTGATATCTCTAATCAGCAACTTAACCACAAAAACAAAACAACCATAAGTTGATATTTTTGTGAATCGAGTATTTCAGCAAAACTACTGCAGTAAGAA | -2.24 ± 2.1 | -4.75 ± 1.3 |
| AATGTTGTTGATGCAACCATAAAGTGATATTTAATAATTATTTATAACAACCATATATTGATATCTCTCAGCAACTTAACCACAAAAACAAAACAACCATAAGTTGATATTTTTGTGAATCGAGTATTTCAGCAAAACTACTGCAGTAAGAA | -2.66 ± 1.4 | -4.46 ± 0.052 |
| AATGTTGTTGATGCAACCATAAAGTGATATTTAATAATTATTTATAAGACTACCAGGCCAACACCCCACCAACGCGCGGTCGCGAGACACCCCACCAACGCCTGGTCGCGGGGGTGTCCGATCTGATTTCAGCAAAACTACTGCAGTAAGAA | -6.04 ± 3.5 | -6.62 ± 1.2 |
| AATGTTGTTGATGCAACCATAAAGTGATATTTAATAATTATTTATAATACTACCAGGCCAACACCCCACCAACGCGCGGTCGCGAGACACCCCACCAACGCCTGGTCGCGGGGGTGTCCGATCTGATTTCAGCAAAACTACTGCAGTAAGAA | -3.51 ± 1.3 | -6.5 ± 1.2 |
| AATGTTGTTGATGCAACCATAAAGTGATATTTAATAATTATTTATAATCAACCATATATTGATATCTCACAAAACAACCATAAGTTGATATTTTTGTGAATCGAGTATTTCAGCAAAACTACTGCAGTAAGAAAGTTACTTCGTGGTATGGG | -4.56 ± 2.6 | -6.16 ± 1.6 |
| AATGTTGTTGATGCAACCATAAAGTGATATTTAATAATTATTTATAATCAACCATATATTGATATCTCCAGCAACTTAACCACAAAAACAAAACAACCATAAGTTGATATTTTTGTGAATCGAGTATTTCAGCAAAACTACTGCAGTAAGAA | -2.65 ± 0.85 | -3 ± 0.78 |
| AATGTTGTTGATGCAACCATAAAGTGATATTTAATAATTATTTATAATCACAACCATATATTGATATCTCACAAAACAACCATAAGTTGATATTTTTGTGAATCGAGTATTTCAGCAAAACTACTGCAGTAAGAAAGTTACTTCGTGGTATG | -5.27 ± 1 | -8.21 ± 0.54 |
| AATGTTGTTGATGCAACCATAAAGTGATATTTAATAATTATTTATAATCAGCAACTCAACCATATATTGATATCTCACAAAACAACCATAAGTTGATATTTTTGTGAATCGAGTATTTCAGCAAAACTACTGCAGTAAGAAAGTTACTTCGT | -3.27 ± 0.88 | -3.68 ± 1.1 |

| Sequence | relative integration efficiency (log2) [1] | relative integration efficiency (log2) [2] |
| --- | --- | --- |
| AATGTTGTTGATGCAACCATAAAGTGATATTTAATAATTATTTATAATCAGCAACTGCCAACACCCCACCAACGCGCGGTCGCGAGACACCCCACCAACGCCTGGTCGCGGGGGTGTCCGATCTGATTTCAGCAAAACTACTGCAGTAAGAA | -3.03 ± 0.58 | -6.35 ± 0.99 |
| AATGTTGTTGATGCAACCATAAAGTGATATTTAATAATTATTTATAATCAGCAACTTAAAACACCCCACCAACGCGCGGTCGCGAGACACCCCACCAACGCCTGGTCGCGGGGGTGTCCGATCTGATTTCAGCAAAACTACTGCAGTAAGAA | -3.63 ± 1.1 | -5.87 ± 1.1 |
| AATGTTGTTGATGCAACCATAAAGTGATATTTAATAATTATTTATAATCAGCAACTTAACAACCATATATTGATATCTCACAAAACAACCATAAGTTGATATTTTTGTGAATCGAGTATTTCAGCAAAACTACTGCAGTAAGAAAGTTACTT | -4.07 ± 1.9 | -3.63 ± 1.3 |
| AATGTTGTTGATGCAACCATAAAGTGATATTTAATAATTATTTATAATCAGCAACTTAACAACCATATATTGATATCTCCCACAAAAACAAAACAACCATAAGTTGATATTTTTGTGAATCGAGTATTTCAGCAAAACTACTGCAGTAAGAA | -3.54 ± 1.9 | -1.81 ± 0.81 |
| AATGTTGTTGATGCAACCATAAAGTGATATTTAATAATTATTTATAATCAGCAACTTAACACACCCCACCAACGCGCGGTCGCGAGACACCCCACCAACGCCTGGTCGCGGGGGTGTCCGATCTGATTTCAGCAAAACTACTGCAGTAAGAA | -3.16 ± 0.77 | -5.82 ± 1.5 |
| AATGTTGTTGATGCAACCATAAAGTGATATTTAATAATTATTTATAATCAGCAACTTAACCAACCCCACCAACGCGCGGTCGCGAGACACCCCACCAACGCCTGGTCGCGGGGGTGTCCGATCTGATTTCAGCAAAACTACTGCAGTAAGAA | -4.2 ± 0.92 | -5.95 ± 1.6 |
| AATGTTGTTGATGCAACCATAAAGTGATATTTAATAATTATTTATAATCAGCAACTTAACCACAAAAACCAACGCGCGGTCGCGAGAACAAAAACCAACGCCCTGTCGCGGGCTGTGAATCGAGTATTTCAGCAAAACTACTGCAGTAAGAA | -4.56 ± 2.1 | -6.97 ± 1.6 |
| AATGTTGTTGATGCAACCATAAAGTGATATTTAATAATTATTTATAATCAGCAACTTAACCACAAAAACCAACGCGCGGTCGCGAGAACAAAACAACCATAAGTTGATATTTTTGTGAATCGAGTATTTCAGCAAAACTACTGCAGTAAGAA | -2.16 ± 0.37 | -3.6 ± 1.3 |
| AATGTTGTTGATGCAACCATAAAGTGATATTTAATAATTATTTATAATCAGCAACTTAACCACAAAAACCAACGCGCGGTCGCGAGACACCCCACCAACGCCTGGTCGCGGGGGTGTCCGATCTGATTTCAGCAAAACTACTGCAGTAAGAA | -4.28 ± 1 | -7.55 ± 2 |
| AATGTTGTTGATGCAACCATAAAGTGATATTTAATAATTATTTATAATCAGCAACTTAACCACAAAACAAAACGCGCGGTCGCGAGACACCCCACCAACGCCTGGTCGCGGGGGTGTCCGATCTGATTTCAGCAAAACTACTGCAGTAAGAA | -3.29 ± 0.78 | -6.07 ± 0.85 |
| AATGTTGTTGATGCAACCATAAAGTGATATTTAATAATTATTTATAATCAGCAACTTAACCACAAAACAACCAGCGCGGTCGCGAGACACCCCACCAACGCCTGGTCGCGGGGGTGTCCGATCTGATTTCAGCAAAACTACTGCAGTAAGAA | -5.07 ± 2.1 | -7.15 ± 1.6 |
| AATGTTGTTGATGCAACCATAAAGTGATATTTAATAATTATTTATAATCAGCAACTTAACCACAAAACAACCATAAAATGATAATTAACAAAAGTTGGTATTCAACTATAAAATGTGAATCGAGTATTTCAGCAAAACTACTGCAGTAAGAA | -1.31 ± 1.8 | -2.67 ± 1.1 |
| AATGTTGTTGATGCAACCATAAAGTGATATTTAATAATTATTTATAATCAGCAACTTAACCACAAAACAACCATAAAGTGATATTTAACAAAAGTTGGTATTCAACTATAAAATGTGAATCGAGTATTTCAGCAAAACTACTGCAGTAAGAA | -0.811 ± 0.85 | -2.53 ± 1.4 |
| AATGTTGTTGATGCAACCATAAAGTGATATTTAATAATTATTTATAATCAGCAACTTAACCACAAAACAACCATAAGTTGATATTTTACAAAAGTTGGTATTCAACTATAAAATGTGAATCGAGTATTTCAGCAAAACTACTGCAGTAAGAA | -0.485 ± 0.68 | -2.49 ± 1.1 |
| AATGTTGTTGATGCAACCATAAAGTGATATTTAATAATTATTTATAATCAGCAACTTAACCACAAAACAACCATAGCGGTCGCGAGACACCCCACCAACGCCTGGTCGCGGGGGTGTCCGATCTGATTTCAGCAAAACTACTGCAGTAAGAA | -4.33 ± 1.8 | -6.21 ± 1.6 |
